Results published in PMC4285774.
Where two headings read alike, the source gives them in different places.

What was measured:
Assay in all cases: fluorescence anisotropy
Prp2 [1] = biological target: T1, Prp2 (UniProt P20095 1-876)
T1 sequence: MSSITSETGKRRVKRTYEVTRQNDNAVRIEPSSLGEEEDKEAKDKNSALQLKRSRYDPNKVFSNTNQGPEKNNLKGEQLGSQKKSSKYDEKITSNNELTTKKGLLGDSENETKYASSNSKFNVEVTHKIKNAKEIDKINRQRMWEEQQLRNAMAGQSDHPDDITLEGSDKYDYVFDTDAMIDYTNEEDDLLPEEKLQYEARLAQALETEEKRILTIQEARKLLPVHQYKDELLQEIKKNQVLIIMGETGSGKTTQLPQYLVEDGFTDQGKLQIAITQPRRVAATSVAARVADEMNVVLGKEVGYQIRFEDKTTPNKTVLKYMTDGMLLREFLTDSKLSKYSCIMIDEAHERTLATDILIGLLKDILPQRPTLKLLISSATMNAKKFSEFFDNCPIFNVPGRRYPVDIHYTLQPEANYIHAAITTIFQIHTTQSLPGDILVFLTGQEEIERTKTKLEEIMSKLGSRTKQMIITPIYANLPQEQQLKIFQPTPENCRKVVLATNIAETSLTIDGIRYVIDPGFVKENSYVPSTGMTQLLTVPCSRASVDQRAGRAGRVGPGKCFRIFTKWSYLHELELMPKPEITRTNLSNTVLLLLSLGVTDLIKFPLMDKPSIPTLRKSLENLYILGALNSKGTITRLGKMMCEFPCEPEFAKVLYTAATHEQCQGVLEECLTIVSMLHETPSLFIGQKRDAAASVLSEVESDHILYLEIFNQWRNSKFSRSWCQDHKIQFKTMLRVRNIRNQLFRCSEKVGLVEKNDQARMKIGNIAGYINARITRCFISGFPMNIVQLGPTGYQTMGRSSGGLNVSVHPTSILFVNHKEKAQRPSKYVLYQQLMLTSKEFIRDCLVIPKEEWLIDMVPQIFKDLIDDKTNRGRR

Spp2 = biological target: T2, Spp2 (UniProt Q02521 36-185)
T2 sequence: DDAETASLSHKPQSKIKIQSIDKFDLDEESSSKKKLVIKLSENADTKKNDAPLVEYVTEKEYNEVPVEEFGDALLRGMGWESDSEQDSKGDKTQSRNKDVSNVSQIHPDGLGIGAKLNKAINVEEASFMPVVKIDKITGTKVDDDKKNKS

Prp2;Spp2 = biological target: T3, Prp2;Spp2 (Saccharomyces cerevisiae?;Saccharomyces …, UniProt P20095;Q02521 1-876;36-185, |)
T3 sequence 1: T1 sequence
T3 sequence 2: T2 sequence

Prp2 [2] = biological target: T1, Prp2; remark: listed apart in the source

**Q.** What does the source list for GGCCGCGAGAAAAAAAAAAAAAAA (ssRNA) [24-nt ssRNA]?
**A.** Kd (Prp2 [1]): 53 ± 5 nM; binding result (Spp2): no binding; binding result (Prp2;Spp2): binds; Kd (Prp2 [2]): 70 ± 11 nM
